# Source: patent US8815213B2, “RGD-(bacterio)chlorophyll conjugates for photodynamic therapy and Imaging of Necrotic tumors” (Yeda Research and Development Co. Ltd., priority 2008, dated 2014)
# Where a name gives a salt, the structure may show the parent alone. Read-outs that look alike come from different tables or passages of the source.
# How the values were obtained:
# [1] = tested on: MDA-MB-231-RFP necrotic tumor domains; assay: Excised tumor fluorescence imaging, viable versus necrotic domains; type: in vivo, mice
# Procedure: (§1) Mice were sacrificed, tumors were excised, cut in half and imaged at different time intervals: 10 min, 1, 4 and 24 h, 3, 5 and 7 days for MDA-MB-231-RFP and 7 days for MLS-mBanana using the Xenogen IVIS® System. Filter sets used for the fluorescence imaging are described in (vii).
# The markedly different dynamic fluorescence patterns of necrotic and non-necrotic breast tumor xenografts implanted in the mammary pads, motivated investigation of the correlation between the tumor histology and compound 13 fluorescence signal accumulation. […] Images were taken at several time points (10 min, 1, 4 and 24 h, 3, 5 and 7 days post injection) using Xenogen IVIS® System as described in Materials and Methods, section (vii). Results shown in FIGS. 23-29 present compound 13 fluorescence accumulation at different time points. For each time point, 3 animals were tested. […] At 4 h, there was some diffusion towards the necrotic domain. […] In this set of experiments it was shown that as time progresses, compound 13 moves through the viable domain into the necrotic domain and accumulates there specifically for a long period of time.
# In view of the pattern of accumulation observed for compound 13, other Bchl derivatives were tested. […] Images were taken using Xenogen IVIS® System as described above. […] Similar results were observed when tumors were excised 3 and 5 days post drug injection (N=3 for each time point).
# [2] = tested on: xenografts of primary tumors; conditions: up to; cited from earlier work
# [3] = tested on: MDA-MB-231-RFP non-necrotic tumors (~0.5 cm^3); assay: In-vivo whole body NIR fluorescence imaging of drug up-take in primary non-necrotic MDA-MB-231-RFP xenograft tumors
# Procedure: (§2) (vi) Mouse tumor model—MDA-MB-231-RFP fluorescent human breast cancer cells and MLS-mBanana fluorescent human ovarian cancer cells (5×10^6 in 100 μl saline) were trypsinated and collected at subconfluency and then inoculated into the back or mammary fat pad of female mice. Tumors were allowed to develop to two desired sizes—necrotic tumors (˜1 cm^3, within 3-4 weeks) and non-necrotic tumors (˜0.5 cm^3 within 1-2 weeks).
# (§3) (vii) Whole body fluorescence imaging—Mice were anaesthetized by i.p. injection of 30 μl mixture of 85:15 ketamine:xylazine. […] Red fluorescent protein (RFP), pRSETB-mBanana and the photosensitizers fluorescence were monitored by in-vivo optical imaging system, IVIS®100 (Xenogen Corp., Alameda, Calif.). Main filter set for tumor imaging comprised excitation filter at 500-550 nm and emission filter at 575-650 nm; Background filter set for subtracting tissue auto-fluorescence comprised excitation filter at 460-490 nm and emission filter at 575-650 nm. Drugs imaging main filter set comprised excitation filter at 665-695 nm and emission filter at 810-875 nm. Images were obtained during the same exposure time and are illustrated on the same linear color scale to allow for a qualitative comparison.
# (§4) The same parameters were next examined in tumors ≦0.5 cm^3, which are non-necrotic.
# [4] = tested on: MDA-MB-231-RFP necrotic tumors; assay: Fluorescence signal measurement in necrotic tumors, tumor vs. collateral side; type: in vivo; conditions: average of 9 mice
# Procedure: (viii) Fluorescence signal measurement in necrotic tumors—Tumor margins—region of interest (ROI), from the whole body in-vivo images was marked and the fluorescence signal within the circled margins was expressed in photon/sec.
# The same ROI was used to measure photon/sec in the collateral side. In addition, for background measurements, tumor and collateral side ROIs were measured in three untreated mice and averaged. Measured values of the fluorescence from each ROI were divided by the area to provide normalized fluorescence signal intensity in photon/sec/cm^2. Signal measurements were collected from 15 min to 216 h post compound 13 injection. In each time point, the background was subtracted and the average was calculated as was the ratio between the fluorescence in the tumor margins and the collateral side.
# In order to evaluate semi-quantitatively the accumulation pattern of compound 13 in necrotic tumors, the average fluorescence signal for compound 13 in necrotic tumors of 9 mice was calculated and plotted over 216 h, at several time points (FIG. 8). From 12 h post injection and onward the fluorescence signal from the tumor became distinctively stronger than that of an equivalent control region on the collateral side. The ratio of the fluorescence between the tumor and the collateral side increased in time and reached a plateau at ˜8 from 192 h.
# [5] = tested on: human ovarian MLS-mBanana primary tumors, necrotic (>1 cm^3); assay: In-vivo NIR fluorescence imaging of uptake in MLS-mBanana primary necrotic tumors; design: species or system CD-1 nude female mice
# Source text: In order to establish the generality of the results obtained in the experiments above, the accumulation of compound 13 in the necrotic domain was further examined in a different tumor type, generated from MLS-mBanana human ovarian cancer cell line. […] Shortly after injection, the compound 13 NIR fluoresces was mostly detected from the liver and the tumor.
# [6] = tested on: MDA-MB-231-RFP primary non-necrotic tumors; assay: Competition assay between compound 13 and free c(RGDfK) binding; type: in vivo, mice; conditions: 24 h
# Procedure: (ix) Competition assay between compound 13 and free c(RGDfK) binding—Mice were injected with excess (8.5 μmol) of free c(RGDfK) peptide one hour prior to the injection of compound 13 (140 nmol). The control group was injected only with compound 13 (140 nmol). Fluorescent images were taken 24 h post compound 13 injection. Fluorescence imaging main filter set was used as described in (vii).
# Compound 13 was administrated with or without prior injection of c(RGDfK) as described in Example 3.
# [7] = tested on: MLS-mBanana necrotic tumor domains; assay: Excised tumor fluorescence imaging, MLS-mBanana; type: in vivo, mice; conditions: 7 days post drug injection
# Procedure: as §1
# Here the results were somewhat different. In most cases the necrosis pattern in this type of tumor was not central, namely, there was a wide spread necrosis that was not specifically located in the middle of the tumor or generated from one place in the tumor. In these cases, the accumulation was not as prolonged. In the few cases where central necrosis was observed, the accumulation pattern was similar to that in the MDA-MB-231-RFP tumors. FIGS. 31-32 show the results obtained 7 days post drug injection.
# [8] = tested on: orthotopic human breast MDA-MB-231-RFP primary tumor, necrotic (~1 cm^3); conditions: mouse, in vivo
# Procedure: as §2, §3
# The accumulation pattern of compound 13 in necrotic MDA-MB-231-RFP tumors (≧1 cm^3) in vivo was examined. […] Whole animal images were recorded concomitantly, using the filter sets as described in Materials and Methods section (vii) above. Dynamic fluorescence images were acquired every 1-1.5 h for 9 h, and at 24 h post injection of compound 13 (FIGS. 4A-4B), and then for every 24 h for the next 7 days (FIGS. 5A-5B).
# [9] = tested on: MDA-MB-231-RFP non-necrotic tumors (~0.5 cm^3); conditions: mouse, in vivo
# Procedure: as §2, §3, §4
# [10] = tested on: MLS-mBanana non-necrotic tumors (~0.5 cm^3); conditions: mouse, in vivo
# Source text: Red fluorescent protein (RFP), pRSETB-mBanana and the photosensitizers fluorescence were monitored by in-vivo optical imaging system, IVIS®100 (Xenogen Corp., Alameda, Calif.). Main filter set for tumor imaging comprised excitation filter at 500-550 nm and emission filter at 575-650 nm; Background filter set for subtracting tissue auto-fluorescence comprised excitation filter at 460-490 nm and emission filter at 575-650 nm. Drugs imaging main filter set comprised excitation filter at 665-695 nm and emission filter at 810-875 nm. Images were obtained during the same exposure time and are illustrated on the same linear color scale to allow for a qualitative comparison.
# [11] = tested on: MDA-MB-231-RFP non-necrotic and necrotic tumors at the mammary pad; assay: Uptake of compound 25 in MDA-MB-231-RFP primary, necrotic and non necrotic tumors; type: in vivo, CD1-nude mice
# Procedure: Two experiments were performed in order to determine whether the tumor up-take of compound 13 and the resulted accumulation of the NIR fluorescence signal are driven by the RGD moiety. In the first experiment the accumulation of the fluorescence signal at different times after compound 13 injection was compared to that of free 2H-MLT (compound 25) injection to CD1-nude mice grafted with MDA-MB-231-RFP non-necrotic (≦0.5 cm^3) and necrotic (˜1 cm^3) tumors at the mammary pad. The second experiment was a competition assay between compound 13 and free c(RGDfK).
# Dynamic fluorescence images were acquired for both necrotic and non necrotic tumors every 1-1.5 h for 8.5-9 h, and at 24 h after initial injection of compound 25 (FIGS. 18A-18B and 20A-20B) and for every 24 h for the following three days (FIGS. 19A-19B and 21A-21B). […] The fluorescence signal values were ˜2 orders of magnitude smaller than the maximally observed values for compound 13 (at much longer time intervals). The fluorescence signal dropped down to non-significant values already at 20 min post injection. Meanwhile, the fluorescence signal accumulated mostly in the liver and in the heart.
compound,measurement,setting,value
Palladium 3^1-oxo-15-methoxycarbonyl-methyl-Rhodobacteriochlorin 13^1-(2-sulfoethyl)amide-17^3-c(RGDfK)amide potassium salt [compound 24],presence of drug in excised tumor,"[1]; nine days post drug injection, N=3",clearly present in the necrotic domain
same,accumulation in xenografts of primary tumors,[2],4 to 8 µM
same,time at which NIR fluorescence reached peak values in the liver,"[3]; 15 mg/kg i.v., post drug injection",5.5 h
same,time at which NIR fluorescence reached peak values in the tumor,"[3]; 15 mg/kg i.v., post injection",~2.5 h
same,fluorescence from the non-necrotic tumors,[3]; 24 hours post injection,practically no fluorescence
same,"time of peak tumor fluorescence, averaged measurements","[3]; post drug injection, 16 animals (compound 13), 5 animals (compound 24)",1 to 4.5 h
"CC[C@H]1c2cc3[nH]c(c(CC(=O)OC)c4nc(cc5[nH]c(cc(n2)[C@@H]1C)c(C(C)=O)c5C)[C@@H](C)[C@@H]4CCC(=O)NCCCC[C@@H]1NC(=O)[C@@H](Cc2ccccc2)NC(=O)[C@H](CC(=O)O)NC(=O)CNC(=O)[C@H](CCCNC(=N)N)NC1=O)c(C(=O)NCCS(=O)(=O)O)c3C [compound 13, 3^1-oxo-15-methoxycarbonylmethyl-Rhodobacteriochlorin 13^1-(2-sulfoethyl) amide-17^3-c(RGDfK)amide potassium salt]","ratio of the fluorescence between the tumor and the collateral side, plateau",[4]; from 192 h post injection,~8
same,time from which tumor fluorescence signal is distinctively stronger than collateral side,[4]; post injection,≥ 12 h
same,clearance compared with MDA-MB-231-RFP necrotic tumors,"[5]; mouse, in vivo",markedly faster
same,clearance from the tumor almost completed,"[5]; mouse, in vivo",3 days
same,complete drug clearance by that time,"[5]; mouse, in vivo",≤ 4 days
same,time of maximum concentration in the necrotic zone,"[5]; mouse, in vivo",24 h
same,concentration in necrotic tumors versus non-necrotic tumors,"[5]; same linear fluorescence scale, 2 days post injection",much higher
same,accumulation in the tumor,[6]; 140 nmol alone (control group),detectable
same,accumulation in the tumor,"[6]; 140 nmol, 1 h after 8.5 μmol free c(RGDfK)",no accumulation in the tumor was detected
same,location of drug fluorescence in excised tumor,"[1]; 10 min to 4 h post drug injection, 15 mg/kg",only at the viable area
same,location of drug fluorescence in excised tumor,[1]; 24 h post injection,higher drug fluorescence from the necrotic domain
same,location of drug fluorescence in excised tumor,"[1]; from three days post injection (3, 5 and 7 days)",shifted completely to the necrotic zone
same,presence of drug in excised tumor,[7]; central necrosis,clearly present in the necrotic domain
same,presence of drug in excised tumor,[7]; no central necrosis,not present
same,"time of peak tumor concentration ratio, compared to other organs",[8],≥ 48 h
same,clearance from the liver in the following days,"[8]; iv, 15 mg/kg",completely clearing from the liver
same,clearance from the tumor thereafter,"[8]; iv, 15 mg/kg",extremely slow clearance
same,clearance from the tumor after accumulation,[9],< 24 h
same,complete drug clearance by that time,[9],≤ 3 days
same,fluorescence from the non-necrotic tumors,[9],practically no fluorescence
same,"time of peak tumor fluorescence, averaged measurements",[9],1 to 6.5 h
same,almost complete drug clearance by that time,[10],≤ 4 days
same,time at which NIR fluorescence reached peak values in the tumor,[10],~1 h
same,"time of peak tumor fluorescence, average measurements",[10],1 to 3.5 h
"CC[C@H]1c2cc3[nH]c(c(CC(=O)OC)c4nc(cc5[nH]c(cc(n2)[C@@H]1C)c(C(C)=O)c5C)[C@@H](C)[C@@H]4CCC(=O)O)c(C(=O)NCCS(=O)(=O)[O-])c3C.[K+] [compound 25, 3^1-oxo-15-methoxycarbonylmethyl-Rhodo-bacteriochlorin 13^1-(2-sulfoethyl) amide potassium salt]",accumulation in small (non-necrotic) and large (necrotic) tumors,"[11]; mouse, in vivo",no short or long term accumulation was observed
same,"fluorescence signal values, smaller than the maximally observed values for compound 13","[11]; mouse, in vivo",~2 orders of magnitude
same,time at which fluorescence signal dropped to non-significant values,[11]; post injection,≤ 20 min
same,time of maximal concentration (NIR fluorescence signal) in the tumor,"[11]; post injection, if any concentration was observed at all",5 to 10 min
